Laboratory results from the Human Domainome abundance scans (Beltran et al. 2025).
± gives the uncertainty stated by the source.

assay: abundance fitness (aPCA) (normalised: wild type 0, dead -1); higher = more abundant; growth selection in yeast, the domain comes from the species named; settings: Saccharomyces cerevisiae (strain ATCC 204508 / S288c)

**Q.** With “E3 ubiquitin-protein ligase RSP5 G336Y, P39940” as the substance, how does the abundance fitness read?
**A.** -0.815 ± 0.19

**Q.** With “E3 ubiquitin-protein ligase RSP5 G345C, P39940” as the substance, how does the abundance fitness read?
**A.** -0.364 ± 0.06

**Q.** Which abundance fitness does the source give for “E3 ubiquitin-protein ligase RSP5 G345D, P39940” here?
**A.** -0.271 ± 0.26

**Q.** For “E3 ubiquitin-protein ligase RSP5 G345E, P39940”, which abundance fitness is on record?
**A.** -0.312 ± 0.057

**Q.** For “E3 ubiquitin-protein ligase RSP5 G345K, P39940”, which abundance fitness is on record?
**A.** 0.148 ± 0.11

**Q.** With “E3 ubiquitin-protein ligase RSP5 G345L, P39940” as the substance, how does the abundance fitness read?
**A.** -0.303 ± 0.062

**Q.** With “E3 ubiquitin-protein ligase RSP5 G345M, P39940” as the substance, how does the abundance fitness read?
**A.** -0.14 ± 0.074

**Q.** Which abundance fitness does the source give for “E3 ubiquitin-protein ligase RSP5 G345P, P39940” here?
**A.** -0.717 ± 0.084

**Q.** For “E3 ubiquitin-protein ligase RSP5 G345Q, P39940”, which abundance fitness is on record?
**A.** -0.202 ± 0.08

**Q.** With “E3 ubiquitin-protein ligase RSP5 G345R, P39940” as the substance, how does the abundance fitness read?
**A.** -0.219 ± 0.047

**Q.** For “E3 ubiquitin-protein ligase RSP5 G345T, P39940”, which abundance fitness is on record?
**A.** -0.665 ± 0.069

**Q.** Which abundance fitness does the source give for “E3 ubiquitin-protein ligase RSP5 G345W, P39940” here?
**A.** -0.466 ± 0.049

**Q.** For “E3 ubiquitin-protein ligase RSP5 H352A, P39940”, which abundance fitness is on record?
**A.** -0.236 ± 0.045

**Q.** For “E3 ubiquitin-protein ligase RSP5 H352C, P39940”, which abundance fitness is on record?
**A.** -0.384 ± 0.067

**Q.** Which abundance fitness does the source give for “E3 ubiquitin-protein ligase RSP5 H352D, P39940” here?
**A.** -0.325 ± 0.099

**Q.** Which abundance fitness does the source give for “E3 ubiquitin-protein ligase RSP5 H352E, P39940” here?
**A.** -0.296 ± 0.056

**Q.** For “E3 ubiquitin-protein ligase RSP5 H352G, P39940”, which abundance fitness is on record?
**A.** -0.229 ± 0.04

**Q.** Which abundance fitness does the source give for “E3 ubiquitin-protein ligase RSP5 H352I, P39940” here?
**A.** -0.046 ± 0.16

**Q.** For “E3 ubiquitin-protein ligase RSP5 H352K, P39940”, which abundance fitness is on record?
**A.** -0.176 ± 0.074

**Q.** With “E3 ubiquitin-protein ligase RSP5 H352L, P39940” as the substance, how does the abundance fitness read?
**A.** -0.235 ± 0.057

**Q.** With “E3 ubiquitin-protein ligase RSP5 H352M, P39940” as the substance, how does the abundance fitness read?
**A.** -0.104 ± 0.053

**Q.** Which abundance fitness does the source give for “E3 ubiquitin-protein ligase RSP5 H352N, P39940” here?
**A.** 0.049 ± 0.085

**Q.** With “E3 ubiquitin-protein ligase RSP5 H352P, P39940” as the substance, how does the abundance fitness read?
**A.** -0.636 ± 0.05

**Q.** With “E3 ubiquitin-protein ligase RSP5 H352Q, P39940” as the substance, how does the abundance fitness read?
**A.** -0.19 ± 0.086

**Q.** With “E3 ubiquitin-protein ligase RSP5 H352R, P39940” as the substance, how does the abundance fitness read?
**A.** -0.253 ± 0.046

**Q.** With “E3 ubiquitin-protein ligase RSP5 H352S, P39940” as the substance, how does the abundance fitness read?
**A.** -0.297 ± 0.051

**Q.** For “E3 ubiquitin-protein ligase RSP5 H352T, P39940”, which abundance fitness is on record?
**A.** -0.197 ± 0.055

**Q.** With “E3 ubiquitin-protein ligase RSP5 H352V, P39940” as the substance, how does the abundance fitness read?
**A.** -0.361 ± 0.056

**Q.** With “E3 ubiquitin-protein ligase RSP5 H352W, P39940” as the substance, how does the abundance fitness read?
**A.** -0.223 ± 0.049

**Q.** With “E3 ubiquitin-protein ligase RSP5 H352Y, P39940” as the substance, how does the abundance fitness read?
**A.** -0.176 ± 0.12

**Q.** Which abundance fitness does the source give for “E3 ubiquitin-protein ligase RSP5 L330A, P39940” here?
**A.** 0.005 ± 0.046

**Q.** Which abundance fitness does the source give for “E3 ubiquitin-protein ligase RSP5 L330C, P39940” here?
**A.** 0.05 ± 0.062

**Q.** With “E3 ubiquitin-protein ligase RSP5 L330D, P39940” as the substance, how does the abundance fitness read?
**A.** 0.02 ± 0.065

**Q.** Which abundance fitness does the source give for “E3 ubiquitin-protein ligase RSP5 L330E, P39940” here?
**A.** 0.013 ± 0.063

**Q.** Which abundance fitness does the source give for “E3 ubiquitin-protein ligase RSP5 L330F, P39940” here?
**A.** -0.014 ± 0.071

**Q.** With “E3 ubiquitin-protein ligase RSP5 L330G, P39940” as the substance, how does the abundance fitness read?
**A.** -0.087 ± 0.043

**Q.** Which abundance fitness does the source give for “E3 ubiquitin-protein ligase RSP5 L330H, P39940” here?
**A.** -0.048 ± 0.067

**Q.** Which abundance fitness does the source give for “E3 ubiquitin-protein ligase RSP5 L330I, P39940” here?
**A.** 0.007 ± 0.062

**Q.** With “E3 ubiquitin-protein ligase RSP5 L330K, P39940” as the substance, how does the abundance fitness read?
**A.** -0.023 ± 0.056

**Q.** For “E3 ubiquitin-protein ligase RSP5 L330M, P39940”, which abundance fitness is on record?
**A.** 0.089 ± 0.073

**Q.** For “E3 ubiquitin-protein ligase RSP5 L330N, P39940”, which abundance fitness is on record?
**A.** 0.054 ± 0.08

**Q.** Which abundance fitness does the source give for “E3 ubiquitin-protein ligase RSP5 L330P, P39940” here?
**A.** -0.058 ± 0.069

**Q.** Which abundance fitness does the source give for “E3 ubiquitin-protein ligase RSP5 L330Q, P39940” here?
**A.** -0.024 ± 0.053

**Q.** Which abundance fitness does the source give for “E3 ubiquitin-protein ligase RSP5 L330R, P39940” here?
**A.** -0.088 ± 0.045

**Q.** For “E3 ubiquitin-protein ligase RSP5 L330S, P39940”, which abundance fitness is on record?
**A.** -0.055 ± 0.05

**Q.** Which abundance fitness does the source give for “E3 ubiquitin-protein ligase RSP5 L330T, P39940” here?
**A.** -0.044 ± 0.062

**Q.** With “E3 ubiquitin-protein ligase RSP5 L330V, P39940” as the substance, how does the abundance fitness read?
**A.** -0.019 ± 0.041

**Q.** Which abundance fitness does the source give for “E3 ubiquitin-protein ligase RSP5 L330W, P39940” here?
**A.** -0.161 ± 0.054

**Q.** Which abundance fitness does the source give for “E3 ubiquitin-protein ligase RSP5 L330Y, P39940” here?
**A.** -0.003 ± 0.08

**Q.** With “E3 ubiquitin-protein ligase RSP5 L333A, P39940” as the substance, how does the abundance fitness read?
**A.** -0.648 ± 0.05

**Q.** Which abundance fitness does the source give for “E3 ubiquitin-protein ligase RSP5 L333C, P39940” here?
**A.** -0.428 ± 0.06
